Reference: IntAct's records for PubMed 29374201

B1: Complement factor H (Homo sapiens), P08603-2 (parent)
chain: MRLLAKIICLMLWAICVAEDCNELPPRRNTEILTGSWSDQTYPEGTQAIYKCRPGYRSLGNVIMVCRKGEWVALNPLRKCQKRPCGHPGDTPFGTFTLTGGNVFEYGVKAVYTCNEGYQLLGEINYRECDTDGWTNDIPICEVVKCLPVTAPENGKIVSSAMEPDREYHFGQAVRFVCNSGYKIEGDEEMHCSDDGFWSKEKPKCVEISCKSPDVINGSPISQKIIYKENERFQYKCNMGYEYSERGDAVCTESGWRPLPSCEEKSCDNPYIPNGDYSPLRIKHRTGDEITYQCRNGFYPATRGNTAKCTSTGWIPAPRCTLKPCDYPDIKHGGLYHENMRRPYFPVAVGKYYSYYCDEHFETPSGSYWDHIHCTQDGWSPAVPCLRKCYFPYLENGYNQNYGRKFVQGKSIDVACHPGYALPKAQTTVTCMENGWSPTPRCIRVSFTL
B2: Complement factor H (Homo sapiens), P08603 (parent)
chain: MRLLAKIICLMLWAICVAEDCNELPPRRNTEILTGSWSDQTYPEGTQAIYKCRPGYRSLGNVIMVCRKGEWVALNPLRKCQKRPCGHPGDTPFGTFTLTGGNVFEYGVKAVYTCNEGYQLLGEINYRECDTDGWTNDIPICEVVKCLPVTAPENGKIVSSAMEPDREYHFGQAVRFVCNSGYKIEGDEEMHCSDDGFWSKEKPKCVEISCKSPDVINGSPISQKIIYKENERFQYKCNMGYEYSERGDAVCTESGWRPLPSCEEKSCDNPYIPNGDYSPLRIKHRTGDEITYQCRNGFYPATRGNTAKCTSTGWIPAPRCTLKPCDYPDIKHGGLYHENMRRPYFPVAVGKYYSYYCDEHFETPSGSYWDHIHCTQDGWSPAVPCLRKCYFPYLENGYNQNYGRKFVQGKSIDVACHPGYALPKAQTTVTCMENGWSPTPRCIRVKTCSKSSIDIENGFISESQYTYALKEKAKYQCKLGYVTADGETSGSITCGKDGWSAQPTCIKSCDIPVFMNARTKNDFTWFKLNDTLDYECHDGYESNTGSTTGSIVCGYNGWSDLPICYERECELPKIDVHLVPDRKKDQYKVGEVLKFSCKPGFTIVGPNSVQCYHFGLSPDLPICKEQVQSCGPPPELLNGNVKEKTKEEYGHSEVVEYYCNPRFLMKGPNKIQCVDGEWTTLPVCIVEESTCGDIPELEHGWAQLSSPPYYYGDSVEFNCSESFTMIGHRSITCIHGVWTQLPQCVAIDKLKKCKSSNLIILEEHLKNKKEFDHNSNIRYRCRGKEGWIHTVCINGRWDPEVNCSMAQIQLCPPPPQIPNSHNMTTTLNYRDGEKVSVLCQENYLIQEGEEITCKDGRWQSIPLCVEKIPCSQPPQIEHGTINSSRSSQESYAHGTKLSYTCEGGFRISEENETTCYMGKWSSPPQCEGLPCKSPPEISHGVVAHMSDSYQYGEEVTYKCFEGFGIDGPAIAKCLGEKWSHPPSCIKTDCLSLPSFENAIPMGEKKDVYKAGEQVTYTCATYYKMDGASNVTCINSRWTGRPTCRDTSCVNPPTVQNAYIVSRQMSKYPSGERVRYQCRSPYEMFGDEEVMCLNGNWTEPPQCKDSTGKCGPPPPIDNGDITSFPLSVYAPASSVEYQCQNLYQLEGNKRITCRNGQWSEPPKCLHPCVISREIMENYNIALRWTAKQKLYSRTGESVEFVCKRGYRLSSRSHTLRTTCWDGKLEYPTCAKR
partner: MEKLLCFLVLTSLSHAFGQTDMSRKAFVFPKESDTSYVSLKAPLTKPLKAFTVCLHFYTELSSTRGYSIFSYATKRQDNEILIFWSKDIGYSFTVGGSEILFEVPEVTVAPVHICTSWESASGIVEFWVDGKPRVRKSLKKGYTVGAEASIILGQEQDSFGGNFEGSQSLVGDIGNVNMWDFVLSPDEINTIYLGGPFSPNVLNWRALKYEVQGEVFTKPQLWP
B3: Complement factor H (Homo sapiens), P08603-2 (parent)
chain: B1 chain
partner: B2 partner

Variants of: B1
Conditions: with ptx3_human PTX3, P26022
ptx3_human PTX3, P26022, sequence (P26022 whole entry): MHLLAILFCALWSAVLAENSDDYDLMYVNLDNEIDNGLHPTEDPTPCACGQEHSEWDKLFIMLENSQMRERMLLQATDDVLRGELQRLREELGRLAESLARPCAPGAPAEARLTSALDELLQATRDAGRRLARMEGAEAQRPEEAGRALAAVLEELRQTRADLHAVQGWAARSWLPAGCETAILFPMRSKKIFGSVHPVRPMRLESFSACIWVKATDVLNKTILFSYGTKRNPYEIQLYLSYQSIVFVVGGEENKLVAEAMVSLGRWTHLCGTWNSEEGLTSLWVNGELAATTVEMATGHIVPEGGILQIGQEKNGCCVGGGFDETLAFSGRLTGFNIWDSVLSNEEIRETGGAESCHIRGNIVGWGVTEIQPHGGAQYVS

Variant | effect of a mutation on the interaction
Y402H | disrupting interaction strength

Variants of: B1
Conditions: with ptx3_human PTX3, P26022
Remark: another data set of the same source

Variant | effect of a mutation on the interaction
Y402H | decreasing interaction strength

Variants of: B2
Conditions: with crp_human CRP

Variant | effect of a mutation on the interaction
Y402H | decreasing interaction strength

Variants of: B3
Conditions: with crp_human CRP

Variant | effect of a mutation on the interaction
Y402H | decreasing interaction strength
